Settings in all cases: remark: other sources report otherwise
Assay [1] addresses T1, recombinant soluble homotrimeric HA of A/Japan/305/57 (H2N2) (Influenza A virus A/Japan/305/1957(H2N2)). The assay can be described thus: HA microarray, BCC supernatant.
For assay [2], the target named is T2, recombinant soluble homotrimeric HA of A/Netherlands/219/03 (H7N7) (Influenza A virus A/Netherlands/219/03(H7N7)). The assay can be described thus: HA microarray, BCC supernatant.
Assay [3] has as its target T3, recombinant soluble homotrimeric HA of A/Solomon Islands/3/06 (H1N1) (Influenza A virus A/Solomon Islands/3/2006(H1N1)). Put plainly: HA microarray, BCC supernatant.
Assay [4] deals with T4, recombinant soluble homotrimeric HA of A/Wisconsin/67/05 (H3N2) (Influenza A virus A/Wisconsin/67/2005(H3N2)). Put plainly: HA microarray, BCC supernatant.
Assay [5] concerns the target T5, recombinant soluble homotrimeric HA of A/duck/Yangzhou/02/05 (H8N4) (Influenza A virus A/duck/Yangzhou/02/2005(H8N4)). Put plainly: HA microarray, BCC supernatant.
Assay [6] has as its target recombinant homotrimeric HA A/California/4/09 H1N1 (Influenza A virus A/California/04/2009(H1N1)). Put plainly: protein microarray, purified IgG, trimeric HA.
The target of assay [7] is recombinant homotrimeric HA A/Japan/305/57 H2N2 (Influenza A virus A/Japan/305/1957(H2N2)). The assay can be described thus: protein microarray, purified IgG, trimeric HA.
Assay [8] concerns the target recombinant homotrimeric HA A/Solomon Islands/3/06 H1N1 (Influenza A virus A/Solomon Islands/3/2006(H1N1)). Put plainly: protein microarray, purified IgG, trimeric HA.
Assay [9] has as its target recombinant homotrimeric HA A/South Carolina/1/18 H1N1 (Influenza A virus A/South Carolina/1/18 (H1N1)). Put plainly: protein microarray, purified IgG, trimeric HA.
Assay [10] deals with recombinant homotrimeric HA A/Wisconsin/67/05 H3N2 (Influenza A virus A/Wisconsin/67/2005(H3N2)). Put plainly: protein microarray, purified IgG, trimeric HA.
In assay [11] the target is T6, recombinant soluble homotrimeric HA of A/California/4/09 (H1N1) (Influenza A virus A/California/04/2009(H1N1)). The assay can be described thus: trimeric HA microarray, transfection supernatant set 2.
Assay [12] deals with T2, recombinant soluble homotrimeric HA of …. Described as above.
For assay [13], the target named is T4, recombinant soluble homotrimeric HA of …. The description is as above.
The target in assay [14] is T7, recombinant soluble homotrimeric HA of A/chicken/Vietnam/NCVD-016/08 (H5N1) (Influenza A virus A/chicken/Vietnam/NCVD-016/2008(H5N1)). The assay is described as above.
Assay [15] addresses T5, recombinant soluble homotrimeric HA of …. The description is as above.
Assay [16] addresses T7, recombinant soluble homotrimeric HA of …. The assay can be described thus: HA microarray, BCC supernatant.
In assay [17] the target is T8, recombinant soluble homotrimeric HA of A/northern shoveler/California/HKWF115/07 (H6) (Influenza A virus A/northern shoveler/California/HKWF115/2007(H6N1)). The assay can be described thus: HA microarray, BCC supernatant.
Assay [18] addresses T9, recombinant soluble homotrimeric HA of A/swine/Ontario/01911-2/99 (H4N6) (Influenza A virus A/Swine/Ontario/01911-2/99 (H4N6)). The assay can be described thus: HA microarray, BCC supernatant.
In assay [19] the target is recombinant homotrimeric HA A/Netherlands/219/03 H7N7 (Influenza A virus A/Netherlands/219/03(H7N7)). Put plainly: protein microarray, purified IgG, trimeric HA.
Assay [20] has as its target recombinant homotrimeric HA A/chicken/Vietnam/NCVD-016/08 H5N1 (Influenza A virus A/chicken/Vietnam/NCVD-016/2008(H5N1)). The assay can be described thus: protein microarray, purified IgG, trimeric HA.
In assay [21] the target is recombinant homotrimeric HA A/duck/Yangzhou/02/05 H8N4 (Influenza A virus A/duck/Yangzhou/02/2005(H8N4)). Put plainly: protein microarray, purified IgG, trimeric HA.
Assay [22] concerns the target recombinant homotrimeric HA A/northern shoveler/California/HKWF115/07 H6N4 (Influenza A virus A/northern shoveler/California/HKWF115/2007(H6N1)). Put plainly: protein microarray, purified IgG, trimeric HA.
The target in assay [23] is recombinant homotrimeric HA A/swine/Ontario/01911-2/99 H4N6 (Influenza A virus A/Swine/Ontario/01911-2/99 (H4N6)). The assay can be described thus: protein microarray, purified IgG, trimeric HA.
Assay [24] addresses T6, recombinant soluble homotrimeric HA of …. The assay can be described thus: trimeric HA microarray, transfection supernatant set 3.
The target of assay [25] is recombinant soluble homotrimeric HA of A/Hong Kong/1073/99 (H9N2) (Influenza A virus A/Hong Kong/1073/99 (H9N2)). The description is as above.
Assay [26] has as its target T1, recombinant soluble homotrimeric HA of …. The description is as above.
The target in assay [27] is T2, recombinant soluble homotrimeric HA of …. The description is as above.
In assay [28] the target is T3, recombinant soluble homotrimeric HA of …. The assay is described as above.
Assay [29] has as its target recombinant soluble homotrimeric HA of A/South Carolina/1/18 (H1N1) (Influenza A virus A/South Carolina/1/18 (H1N1)). The description is as above.
The target of assay [30] is T4, recombinant soluble homotrimeric HA of …. The description is as above.
Assay [31] addresses T7, recombinant soluble homotrimeric HA of …. The assay is described as above.
Assay [32] deals with T5, recombinant soluble homotrimeric HA of …. The assay is described as above.
The target of assay [33] is T8, recombinant soluble homotrimeric HA of …. Described as above.
Assay [34] has as its target T9, recombinant soluble homotrimeric HA of …. Described as above.

This is an account of results in US20150086555A1.

B1: TCN-526 (5084_C17) (antibody, V domains shown)
VH: EVLMVESGGGLVQPGGSVRLSCVASGFSFSSHWMTWVRQAPGKGLEWVANIEDDGGDKYYVDSVKGRFIISRDNAKNSVYLQMNSLRAEDTAVYFCARGSGSSDRSDYDPHYYYYLDVWGKGATVTVSS
VL: DIQLTQSPSSLSASVGDRVTITCRASQSISRYLNWYQQKPGKAPKLLLFAASTLLDGVPSRFSGSGSGTDFTLTISSLQPEDFATYYCQRNHSPSWTFGQGTRVEIK
Regarding B1, the Trimeric HA Binding: RLU was determined as 246 RLU in assay [1]; 1340 RLU in assay [2]; 341 RLU in [3]; 49300 RLU in assay [4]; 596 RLU in assay [5]; 620 RLU in assay [6]. Also, the Trimeric HA Binding: RLU in assay [7] is 642 RLU; in [8], 804 RLU; in [9] it was 87 RLU; in assay [10], 26600 RLU; in [11], 3600 RLU; in assay [12], 5660 RLU. Besides, the Trimeric HA Binding: RLU in [13] was found to be 27800 RLU; in assay [14], 3290 RLU; in assay [15], 4300 RLU.

B2: TCN-532 (5262_H18) (antibody, V domains shown)
VH: QVQLQESGPGLVKPSETLSLTCTVSGGSVSSETYYWSWIRQPPGKGLEWIGYIYYIGNTDYRPSLKSRVTISLDTSKNQFSLKLSSVTAADTAVYYCARGAYYDSSGYPAFYIWGQGTMVTVSS
VL: QSVLTQPPSVSGAPGQRVTISCTGSSSNIGSDYDVHWYKQLPGTAPKLLIFGNSNRPSGVPDRFSGSKSGTSASLAITGLQAEDEADYYCQSYDSSLSGFHVFGSGTKVTVL
In the case of B2, the Trimeric HA Binding: RLU in assay [1] was 176 RLU; in [2], 327 RLU; in assay [3], 327 RLU; in assay [4] it was 18000 RLU; in [16] it was 46 RLU; in assay [5], 785 RLU. Also, the Trimeric HA Binding: RLU was 511 RLU in assay [17]; 119 RLU in assay [18]; 764 RLU in assay [7]; 129 RLU in [19]; 571 RLU in assay [8]; 149 RLU in assay [9]. The Trimeric HA Binding: RLU in [10] is 25200 RLU; in assay [20], 487 RLU; in assay [21], 176 RLU; in assay [22] it was 117 RLU; in assay [23] it was 122 RLU; in [24], 23600 RLU. Further, the Trimeric HA Binding: RLU in assay [25] worked out at 48 RLU; in assay [26], 441 RLU; in [27], 42 RLU; in [28], 59 RLU; in assay [29], 311 RLU; in assay [30], 9970 RLU. In addition, the Trimeric HA Binding: RLU turned out to be 29 RLU in assay [31], 57 RLU in assay [32], 78 RLU in [33] and 29 RLU in assay [34].

B3: TCN-529 (5297_H01) (antibody, V domains shown)
VH: QITLRESGPTLVKPTQTLTLTCTFSGFSLSTNGVNVGWIRQPPGKALEWLALIYWDDDKRYSPSLKRRLTITKDTSKNQVVLTLTNMDPVDTATYYCAHRPDFYGDFEYWGPGTLVTVSS
VL: QSALTQPASVSGSPGQSITISCTGSSSDIGGYNYVSWYQQHPGKAPKLMIYDVNNRPSGVSNRFSGSKSGNTASLTISGLQTDDEADYYCGSYTGSPHYVFGTGTKVTVL
As to B3, the Trimeric HA Binding: RLU in assay [1] is 435 RLU; in [2], 1160 RLU; in assay [4], 51600 RLU; in [16], 410 RLU; in assay [17], 533 RLU; in assay [6], 977 RLU. Besides, the Trimeric HA Binding: RLU in assay [7] was 1560 RLU; in assay [19], 1310 RLU; in assay [8], 2820 RLU; in assay [9] it was 243 RLU; in assay [10], 25600 RLU; in assay [20], 681 RLU. Also, the Trimeric HA Binding: RLU in [21] was 737 RLU; in assay [24], 735 RLU; in assay [26], 45 RLU; in assay [29] it was 158 RLU; in [30], 2940 RLU; in assay [31] it was 33 RLU. Also, the Trimeric HA Binding: RLU came out at 48 RLU in assay [32] and 45 RLU in assay [34].
